Read-outs that look alike come from different tables or passages of the source.
How the values were obtained:
Experiment in all cases: cryo-EM structure
[1] = target: φEL chaperonin (gene product 146 of Pseudomonas phage EL) (Pseudomonas phage EL)
[2] = target: φEL chaperonin (gene product 146 of Pseudomonas phage EL) (Pseudomonas phage EL); remark: listed apart in the source
[3] = target: φEL chaperonin (gene product 146 of Pseudomonas phage EL) (Pseudomonas phage EL); remark: listed apart in the source

## φEL chaperonin (gene product 146 of Pseudomonas phage EL) (natural protein)
[1]
  stoichiometry N: 14
[2]
  stoichiometry N: 14
[3]
  stoichiometry N: 7
